Assay [1] concerns the target T1, human PD-L1-Fc protein (human, UniProt Q9NZQ7 19-238).
T1 construct: coating antigen of the ELISAs; also called rhPD-L1-Fc; not shown: Fc
Put plainly: receptor blocking ELISA: coated human PD-L1-Fc, blocked ligand biotin-labeled human CD80-Fc (Bio-CD80), OD 450nm; lower right panel. The protocol: (§1) Briefly, microtiter plates were coated with human PD-L1-Fc protein at 0.5 μg/ml in PBS, 100 μl/well at 4° C. overnight, then blocked with 150 μl/well of 1% BSA at 37° C. for 2 hours. […] The plates were washed with PBS/Tween and then incubated with Streptavidin-HRP for 10 mins at 37° C. After washing, the plates were developed with TMB substrate and analyzed by spectrophotometer at OD 450 nm.
In general terms: An ELISA detects its analyte on a solid surface through an enzyme-linked reagent.

In assay [2] the target is T2, human PD-L1-his tag protein (human, UniProt Q9NZQ7 19-238).
T2 construct: also called human PD-L1-His protein; recombinant PD-L1 protein; not shown: his tag
Put plainly: SPR (Biacore T200), mAb captured on Protein A chip, PD-L1-his injected. The protocol:
The binding of the humanized antibodies to recombinant PD-L1 protein (human PD-L1-his tag) was tested by Biacore using a capture method. […] A serial dilution of human PD-L1-his tag protein was injected over captured antibody for 2 mins at a flow rate of 30 μl/min. The antigen was allowed to dissociate for 1500 s. All the experiment were carried out on a Biacore T200.

Assay [3] addresses T1, human PD-L1-Fc protein. Put plainly: receptor blocking ELISA: coated human PD-L1-Fc, blocked ligand biotin-labeled human PD-1-Fc (Bio-PD1), OD 450nm; lower right panel. The protocol: as §1
Assay [4] has as its target T3, human PD-L1 over-expressed on CHOK1 cells (human, UniProt Q9NZQ7 19-290).
T3 construct: whole, on cells; also called PDL1-CHOK1 cells
The assay can be described thus: flow cytometry (MFI) on PDL1-CHOK1 cells; lower right panel. The protocol:
(§2) To evaluate the antigen binding property, the humanized antibodies were analyzed for their binding to PD-L1 overexpressed on mammalian cells by FACS. Briefly, PDL1-CHOK1 cells were firstly incubated with 3-fold serious diluted humanized antibodies starting at 15 μg/ml at 4° C. for 40 mins. After washed by PBS, the Alexa Fluor® 647 AffiniPure Goat Anti-Human IgG (H+L) antibody was added to each well and incubated at 4° C. for 30 mins. The MFI of Alexa Fluor® 647 was evaluated by FACSCanto.

Assay [5] concerns the target T2, human PD-L1-his tag protein. Put plainly: SPR (Biacore), affinity ranking, PDL1-His.
In assay [6] the target is T1, human PD-L1-Fc protein. Put plainly: ELISA, antibody titrated on coated human PD-L1-Fc, OD 450nm; upper right panel.
For assay [7], the target named is cynomolgus PD-L1 protein (cynomolgus, UniProt G7PSE7 19-238). Put plainly: ELISA, coated cynomolgus PD-L1. As for the experimental part: (§3) ELISA testing was carried out to evaluate the binding of chimeric antibodies to human, mouse, rat, and cynomolgus PD-L1, respectively.
(§4) Briefly, microtiter plates were coated with human, mouse, rat and cynomolgus PD-L1 proteins at 0.5 μg/ml in PBS, 100 μl/well at 4° C. overnight, then blocked with 150 μl/well of 1% BSA. Three-fold dilutions of chimeric antibodies starting from 10 μg/ml were added to each well and incubated for 1 hour at 37° C. The plates were washed with PBS/Tween and then incubate with mouse-anti-human IgG Fab antibody conjugated with Horse Radish Peroxidase (HRP) for 30 mins at 37° C. After washing, the plates were developed with TMB substrate and analyzed by spectrophotometer at OD 450 nm.

The target of assay [8] is T3, human PD-L1 over-expressed on CHOK1 …. Put plainly: flow cytometry (MFI) on PDL1-CHOK1 cells; lower right panel (with the Hu89C10H8 antibodies). As for the experimental part:
as §2
(In general: Flow cytometry measures light scatter and fluorescence of single cells or particles in a stream.)

The target of assay [9] is T1, human PD-L1-Fc protein. Put plainly: ELISA, antibody titrated on coated human PD-L1-Fc, OD 450nm; upper right panel (with Hu89C10H8-7 to -12). The protocol:
as §4, with “To evaluate antigen binding activity, the humanized antibodies were subjected to ELISA test. Briefly,” for “Briefly,”, “with human PD-L1-Fc protein” for “with human, mouse, rat and cynomolgus PD-L1 proteins”, “with 200” for “with 150”, “of humanized” for “of chimeric”, “then incubated” for “then incubate”, “for 1 hour” for “for 30 mins”

In assay [10] the target is T1, human PD-L1-Fc protein. Put plainly: receptor blocking ELISA: coated human PD-L1-Fc, blocked ligand biotin-labeled human CD80-Fc (Bio-CD80), OD 450nm; upper left panel (with Hu89C10H8-4). As for the experimental part: as §1
Assay [11] deals with T3, human PD-L1 over-expressed on CHOK1 …. The assay can be described thus: flow cytometry on PDL1-CHOK1 cells. The protocol:
After washing by PBS, Alexa Fluor® 647 AffiniPure Goat Anti-Human IgG (H+L) was added to each well and incubated at 4° C. for 30 mins. Samples were washed twice with FACS buffer. The mean florescence intensity (MFI) of Alexa Fluor® 647 was evaluated by FACSCanto.

Assay [12] addresses T1, human PD-L1-Fc protein. Put plainly: ELISA, coated human PD-L1 (PD-L1-Fc per paragraph 110). As for the experimental part:
Briefly, microtiter plates were coated with human PD-L1-Fc protein at 0.5 μg/ml in PBS, 100 μl/well at 4° C. overnight, then blocked with 150 μl/well of 1% BSA. […] The plates were washed with PBS/Tween and then incubated with Mouse-anti-human IgG Fab antibody conjugated with Horse Radish Peroxidase (HRP) for 30 mins at 37° C. After washing, the plates were developed with TMB substrate and analyzed by spectrophotometer at OD 450 nm.
as §4

In assay [13] the target is T2, human PD-L1-his tag protein. Put plainly: SPR (Biacore T200), mAb captured on Protein A chip, PD-L1-his injected. The protocol:
A serial dilution of human PD-L1-his tag protein was injected over captured antibody for 2 mins at a flow rate of 30 μl/min. The antigen was allowed to dissociate for 480-1500 s. All the experiment were carried out on a Biacore T200. Data analysis was carried out using Biacore T200 evaluation software.
This is another data set of the same source. A general note: SPR reads the build-up and loss of mass on a sensor chip optically.

Assay [14] deals with rat PD-L1 protein (rat, UniProt D4AE25 19-239). Put plainly: ELISA, coated rat PD-L1. As for the experimental part:
as §3, §4

Assay [15] addresses T1, human PD-L1-Fc protein. Put plainly: receptor blocking ELISA: coated human PD-L1-Fc, blocked ligand biotin-labeled human PD-1-Fc (Bio-PD1), OD 450nm; lower left panel (with Hu89C10H8-11). The protocol: as §1
Assay [16] addresses T1, human PD-L1-Fc protein. Put plainly: ELISA, antibody titrated on coated human PD-L1-Fc, OD 450nm; upper left panel (with Hu89C10H8-1 to -6). As for the experimental part: as §4, with “To evaluate antigen binding activity, the humanized antibodies were subjected to ELISA test. Briefly,” for “Briefly,”, “with human PD-L1-Fc protein” for “with human, mouse, rat and cynomolgus PD-L1 proteins”, “with 200” for “with 150”, “of humanized” for “of chimeric”, “then incubated” for “then incubate”, “for 1 hour” for “for 30 mins”

Assay [17] concerns the target T1, human PD-L1-Fc protein. Put plainly: ELISA, antibody titrated on coated human PD-L1-Fc, OD 450nm; lower left panel (with Hu89C10H8-13 to -16). As for the experimental part:
as §4, with “To evaluate antigen binding activity, the humanized antibodies were subjected to ELISA test. Briefly,” for “Briefly,”, “with human PD-L1-Fc protein” for “with human, mouse, rat and cynomolgus PD-L1 proteins”, “with 200” for “with 150”, “of humanized” for “of chimeric”, “then incubated” for “then incubate”, “for 1 hour” for “for 30 mins”

Assay [18] concerns the target T1, human PD-L1-Fc protein. Put plainly: receptor blocking ELISA: coated human PD-L1-Fc, blocked ligand biotin-labeled human CD80-Fc (Bio-CD80), OD 450nm; lower left panel (with Hu89C10H8-11). As for the experimental part:
as §1

For assay [19], the target named is T1, human PD-L1-Fc protein. The assay can be described thus: receptor blocking ELISA: coated human PD-L1-Fc, blocked ligand biotin-labeled human PD-1-Fc (Bio-PD1), OD 450nm; upper right panel (with Hu89C10H8-7). As for the experimental part:
as §1

In assay [20] the target is T1, human PD-L1-Fc protein. The assay can be described thus: receptor blocking ELISA: coated human PD-L1-Fc, blocked ligand biotin-labeled human PD-1-Fc (Bio-PD1), OD 450nm; upper left panel (with Hu89C10H8-4). The protocol: as §1
For assay [21], the target named is T1, human PD-L1-Fc protein. The assay can be described thus: receptor blocking ELISA: coated human PD-L1-Fc, blocked ligand biotin-labeled human CD80-Fc (Bio-CD80), OD 450nm; upper right panel (with Hu89C10H8-7). The protocol:
as §1

Assay [22] addresses T1, human PD-L1-Fc protein. The assay can be described thus: competition ELISA, coated human PD-L1-Fc, biotin-labeled human PD-1-Fc as competitor. The protocol: Briefly, microtiter plates were coated with human PD-L1-Fc protein at 0.5 μg/ml in PBS, 100 μl/well at 4° C. overnight, then blocked with 150 μl/well of 1% BSA. […] The plates were washed with PBS/Tween and then incubated with Streptavidin-HRP for 10 mins at 37° C. After washing, the plates were developed with TMB substrate and analyzed by spectrophotometer at OD 450 nm.

In assay [23] the target is mouse PD-L1 protein (mouse, UniProt Q9EP73 19-239). Put plainly: ELISA, coated mouse PD-L1. As for the experimental part: as §3, §4
Assay [24] addresses T1, human PD-L1-Fc protein. Put plainly: receptor blocking ELISA: coated human PD-L1-Fc, blocked ligand biotin-labeled human CD80-Fc (Bio-CD80), OD 450nm; lower right panel (with Hu89C10H8-12). The protocol:
as §1

T2 sequence (Q9NZQ7 19-238 limits assumed): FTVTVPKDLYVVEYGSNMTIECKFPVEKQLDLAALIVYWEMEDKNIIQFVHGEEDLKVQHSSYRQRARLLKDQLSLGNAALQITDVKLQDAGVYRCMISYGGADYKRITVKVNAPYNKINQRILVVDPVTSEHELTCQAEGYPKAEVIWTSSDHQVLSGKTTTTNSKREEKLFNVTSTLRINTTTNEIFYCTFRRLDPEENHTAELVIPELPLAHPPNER
T1 sequence (Q9NZQ7 19-238 limits assumed): as above
T3 sequence (Q9NZQ7 19-290): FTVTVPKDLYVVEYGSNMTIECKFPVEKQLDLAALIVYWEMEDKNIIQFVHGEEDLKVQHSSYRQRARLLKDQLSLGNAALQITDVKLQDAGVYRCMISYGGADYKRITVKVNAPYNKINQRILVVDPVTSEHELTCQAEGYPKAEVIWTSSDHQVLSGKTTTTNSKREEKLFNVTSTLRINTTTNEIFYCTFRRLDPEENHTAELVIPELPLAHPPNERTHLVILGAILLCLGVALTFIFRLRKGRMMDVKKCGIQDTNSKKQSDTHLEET
mouse PD-L1 protein, sequence (Q9EP73 19-239 limits assumed): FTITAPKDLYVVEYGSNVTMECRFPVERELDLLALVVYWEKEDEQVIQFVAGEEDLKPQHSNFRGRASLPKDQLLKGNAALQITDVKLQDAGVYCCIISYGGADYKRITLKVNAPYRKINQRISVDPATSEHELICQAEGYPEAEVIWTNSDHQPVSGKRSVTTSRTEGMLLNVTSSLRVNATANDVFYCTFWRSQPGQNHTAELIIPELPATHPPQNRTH
cynomolgus PD-L1 protein, sequence (G7PSE7 entry or part of it): as the sequence (Q9NZQ7 19-238 limits assumed) above, with A33T, A34S, S62N, R68Q, Q82R, F173L, T185A, T192I, H215L counted along it
rat PD-L1 protein, sequence (D4AE25 entry or part of it limits assumed): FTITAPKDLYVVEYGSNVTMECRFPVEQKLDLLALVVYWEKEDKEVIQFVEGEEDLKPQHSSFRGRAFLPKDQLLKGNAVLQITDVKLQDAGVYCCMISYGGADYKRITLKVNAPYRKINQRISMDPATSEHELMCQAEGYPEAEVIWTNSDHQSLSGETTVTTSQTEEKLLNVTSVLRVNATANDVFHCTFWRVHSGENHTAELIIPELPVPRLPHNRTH

B1: Hu89C10H8-12 (antibody, V domains shown)
VH: EVQLVESGGGLVKPGGSLRLSCAASGFTFSNYWMTWIRQAPGKGLEWVASITNTGSSTFYPDSVKGRFTISRDNAKSSLYLQMNSLRAEDTAVYYCTRDTTIAPFDYWGQGTMVTVSS
VL: DIQMTQSPSSLSASVGDRVTITCKASQNLNEYLNWYQQKPGKAPKRLIYKTNTLQAGIPSRFSGSGSGIDYTLTISSLQPEDFATYYCSQYNSGNTFGQGTKLEIK
notes: humanized
One may read the IC50 as the midpoint of a concentration-inhibition curve. The Kd is the equilibrium constant for the complex coming apart. One may read the koff as the first-order rate constant of dissociation. Low values mean a long-lived complex, high ones a short-lived complex. Broadly, the kon is the rate constant with which the complex forms. Higher therefore signals fast association. A word on the EC50: it is the concentration needed to bring the measured effect to its halfway point. B1: the half-maximal inhibitory concentration (IC50) came out at 0.284 µg/mL in assay [1] and 0.0891 µg/mL in [3]. Moreover, the Kd is 95.2 pM in assay [2] and 96.8 pM in [5]. The off-rate (koff) in assay [2] is 5.59e-05 s⁻¹; in assay [5], 7.04e-05 s⁻¹. In addition, the association rate constant (kon) in assay [2] was 587000 M⁻¹ s⁻¹; in assay [5] it was 727000 M⁻¹ s⁻¹. In addition, the 50% effective concentration (EC50) in [4] turned out to be 130 pM; in [6], 0.00703 µg/mL.

B2: 89C10H8 chimeric mAb (antibody, V domains shown)
VH: EVQLVESGGGLVQPGRSLTLSCVASGFTFSNYWMTWIRQAPGKGLEWVASITNTGSSTFYPDSVKGRFTISRDNTRSTLFLQINSLRSEDTATYYCTRDTTIAPFDYWGQGVMVTVSS
VL: DIQMTQSPSFLSASVGDRVTITCKASQNLNEYLNWYQQKLGEAPKRLIYKTNTLQAGIPSRFSGSGSGIDYTLTISSLQPEDVATYFCSQYNSGNTFGAGTKLELK
notes: chimeric mAb of the hybridoma clone; also called 89C10H8-chimera
In the case of B2, the half-maximal effective concentration (EC50) turned out to be 0.00677 µg/mL in assay [7]; 118 pM in assay [8]; 0.0157 µg/mL in assay [9]; 170 pM in [11]; 0.00811 µg/mL in [12]; 0.012 µg/mL in assay [16]. For the same molecule, the response in assay [17] was half-maximal at 0.0126 µg/mL (EC50). The IC50 was determined as 0.432 µg/mL in assay [10]; 0.133 µg/mL in [15]; 0.434 µg/mL in [18]; 0.126 µg/mL in assay [19]; 0.12 µg/mL in assay [20]; 0.438 µg/mL in assay [21]. Further, the IC50 in [22] worked out at 0.13 µg/mL; in assay [24], 0.382 µg/mL. For the same molecule, the dissociation constant (Kd) in [13] amounted to 41.5 pM. The koff in assay [13] stood at 6.64e-05 s⁻¹. In addition, the association rate constant (kon) in [13] was found to be 1.6e+06 M⁻¹ s⁻¹. The binding result in assay [14] and in assay [23] was “no binding (tested: dilutions starting from 10 µg/ml)” throughout.
